The source of these data is paper PMC10872465 (Molecular cell, 2023).

The chains are these.
B1: hRpn13 (1–150) (domain or fragment, human, UniProt Q16186 1-150, looked up)
chain: MTTSGALFPSLVPGSRGASNKYLVEFRAGKMSLKGTTVTPDKRKGLVYIQQTDDSLIHFCWKDRTSGNVEDDLIIFPDDCEFKRVPQCPSGRVYVLKFKAGSKRLFFWMQEPKTDQDEEHCRKVNEYLNNPPMPGALGASGSSGHELSAL

Common to all, as to assay: NMR titration
The target of assay [1] is PADI4 (1–663) (UniProt Q9UM07 1-663).
The target of assay [2] is T1, MBP-HDAC8 (UniProt Q9BY41 8-374).
T1 sequence (looked up): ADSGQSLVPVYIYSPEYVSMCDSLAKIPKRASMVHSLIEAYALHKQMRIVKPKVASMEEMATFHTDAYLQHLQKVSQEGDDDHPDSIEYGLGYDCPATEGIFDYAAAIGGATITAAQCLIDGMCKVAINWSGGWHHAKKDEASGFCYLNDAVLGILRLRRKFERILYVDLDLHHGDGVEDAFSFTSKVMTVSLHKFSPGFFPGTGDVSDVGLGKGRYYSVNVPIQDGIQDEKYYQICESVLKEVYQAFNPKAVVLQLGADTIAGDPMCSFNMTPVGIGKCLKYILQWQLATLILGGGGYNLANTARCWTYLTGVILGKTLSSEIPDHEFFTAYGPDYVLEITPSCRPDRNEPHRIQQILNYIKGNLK

Assay [3] deals with B1.

Sequence of PADI4 (1–663) (Q9UM07 whole entry): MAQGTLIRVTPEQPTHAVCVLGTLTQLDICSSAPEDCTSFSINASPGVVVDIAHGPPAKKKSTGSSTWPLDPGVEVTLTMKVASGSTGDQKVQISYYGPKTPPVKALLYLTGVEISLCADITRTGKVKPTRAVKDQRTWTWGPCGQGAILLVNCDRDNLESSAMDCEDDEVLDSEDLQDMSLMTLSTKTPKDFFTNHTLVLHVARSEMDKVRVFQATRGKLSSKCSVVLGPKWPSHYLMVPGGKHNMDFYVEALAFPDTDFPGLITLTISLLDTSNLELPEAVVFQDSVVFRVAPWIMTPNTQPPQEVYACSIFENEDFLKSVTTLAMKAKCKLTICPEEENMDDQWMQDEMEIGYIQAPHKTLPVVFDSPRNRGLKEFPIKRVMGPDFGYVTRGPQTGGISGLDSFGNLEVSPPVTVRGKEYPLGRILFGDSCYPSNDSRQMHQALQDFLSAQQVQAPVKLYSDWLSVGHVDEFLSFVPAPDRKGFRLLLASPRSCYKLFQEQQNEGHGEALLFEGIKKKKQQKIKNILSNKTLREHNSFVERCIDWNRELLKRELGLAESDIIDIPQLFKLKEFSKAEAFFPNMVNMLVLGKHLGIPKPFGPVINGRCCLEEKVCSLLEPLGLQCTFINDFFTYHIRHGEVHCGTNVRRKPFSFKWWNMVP

Take B1: the binding result in assay [1] and in assay [2] was “binds” in each case.
On to QEPEPPEPFEYIDD (peptide, UniProt Q99460 940-953, looked up) [hRpn2 (940–953)], for which the binding result in assay [3] was “binds”.
